# In the supplement of paper PMC12338614:
# ± gives the uncertainty stated by the source.
# B1: library; numbered along this chain (parent)
# chain: MEVVDPQQLGMFTEGELMSVGMDTFIHRIDSTEVIYQPRRKRAKLIGKYLMGDLLGEGSYGKVKEVLDSETLCRRAVKILKKKKLRRIPNGEANVKKEIQLLRRLRHKNVIQLVDVLYNEEKQKMYMVMEYCVCGMQEMLDSVPEKRFPVCQAHGYFCQLIDGLEYLHSQGIVHKDIKPGNLLLTTGGTLKISDLGVAEALHPFAADDTCRTSQGSPAFQPPEIANGLDTFSGFKVDIWSAGVTLYNITTGLYPFEGDNIYKLFENIGKGSYAIPGDCGPPLSDLLKGMLEYEPAKRFSIRQIRQHSWFRKKHPPAEAPVPIPPSPDTKDRWRSMTVVPYLEDLHGADEDEDLFDIEDDIIYTQDFTVPGQVPEEEASHNGQRRGLPKAVCMNGTEAAQLSTKSRAEGRAPNPARKACSASSKIRRLSACKQQ
# Variants of: B1
# Experiment: STK11 functional score (HeLa growth suppression), rescaled enrichment; synonymous median = 1, nonsense median = 0 (normalised score)
# Conditions: with HeLa; variant type: missense
# Method: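 Deep mutational scan (TileSeq/POPCode codon randomisation) of full-length codon-optimised STK11 cDNA integrated at a Bxb1 landing pad (AAVS1) in HeLa cells. Restoring functional STK11 suppresses HeLa proliferation. Variant frequencies were measured by NGS before and after about two weeks of growth. The error-corrected enrichment log-ratio was rescaled so that synonymous median = 1 and nonsense median = 0, scores above 1 were compressed, and codon-level and three biological replicate scores were combined; error is the bootstrapped standard error. Scale: synonymous median = 1, nonsense median = 0; below 0.5 = damaging.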
row,Variant,STK11 functional score
1,P315H,1.34 ± 0.24
2,P315M,1.6 ± 0.19
3,L285A,-0.0789 ± 0.071
4,L285S,-0.0113 ± 0.096
5,N412K,0.831 ± 0.33
6,S428K,0.386 ± 0.55
7,S428Y,1.39 ± 0.16
8,E165G,0.569 ± 0.084
9,A43P,1.37 ± 0.46
10,Q152E,0.844 ± 0.51
11,Q123R,0.312 ± 0.081
12,Q123W,0.588 ± 0.23
13,Q123I,0.581 ± 0.083
14,L195W,0.87 ± 0.12
15,L195G,0.969 ± 0.22
16,K388R,1.54 ± 0.28
17,K388L,0.826 ± 0.34
18,F354N,1.6 ± 0.19
19,D330I,1.33 ± 0.39
20,R383Y,1.25 ± 0.54
21,R383I,1.57 ± 0.22
22,S404A,1.31 ± 0.34
23,L54N,1.64 ± 0.18
24,N90L,1 ± 0.12

row,Variant,STK11 functional score
1,K83Y,1.15 ± 0.15
2,K83I,1.29 ± 0.08
3,K83L,0.484 ± 0.22
4,I300C,0.803 ± 0.36
5,N247W,0.698 ± 0.082
6,D350I,1.25 ± 0.2
7,Y60R,1.51 ± 0.41
8,G268N,1.03 ± 0.38
9,L182S,0.561 ± 0.14
10,K175V,0.466 ± 0.1
11,Y156W,0.28 ± 0.076
12,Y340I,0.334 ± 0.27
13,K84T,0.646 ± 0.11
14,D365I,1.47 ± 0.25
15,D365S,1.51 ± 0.26
16,G408W,1.48 ± 0.2
17,G408H,1.63 ± 0.17
18,G408V,1.2 ± 0.11
19,P319F,1.47 ± 0.26
20,P319A,1.37 ± 0.32
21,P319R,1.53 ± 0.26
22,Q8L,1.5 ± 0.66
23,C430V,1.03 ± 0.62
24,S169G,1.29 ± 0.33

row,Variant,STK11 functional score
1,L427H,1.4 ± 0.25
2,W332R,1.55 ± 0.35
3,P411K,1.57 ± 0.35
4,P369Y,1.41 ± 0.32
5,G381I,1.57 ± 0.22
6,E291M,1.66 ± 0.17
7,C391V,0.834 ± 0.47
8,C391T,0.912 ± 0.71
9,C391A,1.51 ± 0.22
10,F148R,-0.0906 ± 0.086
11,T244H,0.0105 ± 0.12
12,E33F,0.855 ± 0.23
13,P323C,1.28 ± 0.5
14,E121D,0.812 ± 0.56
15,F298A,1.55 ± 0.15
16,D327G,0.999 ± 0.22
17,A205I,1.47 ± 0.18
18,I361A,1.47 ± 0.26
19,I361R,1.53 ± 0.18
20,E374W,1.55 ± 0.14
21,E374I,1.46 ± 0.25
22,C132V,0.601 ± 0.22
23,C132S,0.556 ± 0.09
24,P221R,0.116 ± 0.18

row,Variant,STK11 functional score
1,D352L,1.62 ± 0.15
2,W239S,0.00373 ± 0.1
3,M22S,1.68 ± 0.34
4,K146I,0.185 ± 0.12
5,K146W,0.507 ± 0.098
6,E351C,1.06 ± 0.11
7,M136L,0.989 ± 0.083
8,R301G,1.48 ± 0.25
9,T32G,1.45 ± 0.23
10,I79Y,-0.0325 ± 0.073
11,R310T,0.923 ± 0.65
12,F366W,1.58 ± 0.14
13,F366G,1.55 ± 0.13
14,T71G,1.48 ± 0.19
15,Y253C,0.457 ± 0.26
16,R384G,1.28 ± 0.1
17,M11W,1.71 ± 0.11
18,K423T,1.57 ± 0.22
19,V133P,1.53 ± 0.38
20,V133G,1.14 ± 0.091
21,Y362N,1.47 ± 0.15
22,Y362V,1.32 ± 0.36
23,S31R,1.54 ± 0.28
24,S31A,1.44 ± 0.17

row,Variant,STK11 functional score
1,P280S,1.16 ± 0.34
2,V390L,1.22 ± 0.21
3,P281T,1.46 ± 0.22
4,R333G,1.47 ± 0.27
5,R333H,1.05 ± 0.33
6,A406C,1.52 ± 0.2
7,W308F,1.02 ± 0.078
8,S422D,1.59 ± 0.12
9,L101V,0.836 ± 0.1
10,E130F,0.993 ± 0.35
11,G385Q,1.57 ± 0.24
12,F157G,-0.101 ± 0.099
13,L105W,0.397 ± 0.32
14,R409G,1.25 ± 0.32
15,Q37D,1.4 ± 0.29
16,P254Y,0.0833 ± 0.12
17,Y261V,1.22 ± 0.4
18,M127Y,1.24 ± 0.2
19,M127W,0.627 ± 0.31
20,M127T,1.32 ± 0.48
21,I99F,1.64 ± 0.16
22,D68N,1.31 ± 0.8
23,D68L,0.441 ± 0.14
24,D68S,1.29 ± 0.27

row,Variant,STK11 functional score
1,R426Y,1.54 ± 0.26
2,S232D,1.14 ± 0.3
3,M129I,0.692 ± 0.11
4,I192M,1.25 ± 0.61
5,L290R,-0.22 ± 0.065
6,C158A,1.37 ± 0.59
7,G346L,1.38 ± 0.15
8,G346R,1.56 ± 0.26
9,G346Q,1.61 ± 0.14
10,Q302K,0.605 ± 0.3
11,M335G,1.55 ± 0.15
12,Y131G,0.769 ± 0.28
13,I356G,1.45 ± 0.37
14,C73F,0.572 ± 0.11
15,H174G,0.326 ± 0.24
16,H174W,1.02 ± 0.37
17,I260A,0.468 ± 0.26
18,L282V,0.86 ± 0.23
19,P149L,0.561 ± 0.1
20,K311N,0.848 ± 0.47
21,K311V,0.835 ± 0.47
22,Y272S,0.837 ± 0.15
23,S216K,-0.0726 ± 0.095
24,R103L,0.918 ± 0.12

row,Variant,STK11 functional score
1,R103V,0.764 ± 0.15
2,R103S,1.02 ± 0.11
3,R103C,1.05 ± 0.22
4,R297C,-0.195 ± 0.096
5,F255M,0.792 ± 0.1
6,F255D,0.348 ± 0.1
7,G276W,1.36 ± 0.15
8,S334F,1.1 ± 0.45
9,S334T,1.18 ± 0.13
10,S334W,0.649 ± 0.082
11,E199G,1.07 ± 0.44
12,E199K,1.2 ± 0.76
13,P413V,1.4 ± 0.24
14,K329F,1.18 ± 0.49
15,E70D,1.05 ± 0.45
16,A76F,0.0284 ± 0.091
17,A76C,1.32 ± 0.13
18,A76L,-0.332 ± 0.077
19,G47S,1.62 ± 0.59
20,G47R,1.31 ± 0.58
21,H345R,1.58 ± 0.15
22,S213T,1.05 ± 0.33
23,H313Q,0.889 ± 0.49
